According to patent publication US7838294B2, “Inhibitors of the JNK signal transduction pathway and methods of use” (University of Massachusetts, priority 1997, dated 2010):

Key:
[1] = test system: c-Jun transcriptional activity; test: GAL4 luciferase reporter assay in CHO cells: GAL4-c-Jun; type: cell-based, Chinese hamster; details: FIG. 4B
Description: (§1) In these experiments, CHO cells were cotransfected with constructs encoding the transcription factors and JIP-1 using previously described methods. Dérijard et al., supra; Sluss et al., supra; Gupta et al., supra. A luciferase reporter plasmid was used to monitor the expression of the transcription factors. Transfection efficiency was determined using a β-galactosidase expression vector. Constructs used in these experiments included GAL4 fusions with the c-myc, Sp1 and VP16 activation domains (described in Whitmarsh et al., Science, 269:403 (1995); Davis, Science, 269:403 (1995); Gille et al., Curr. Biol., 5:1191 (1995)). […]
(§2) Transfected cells were activated by treatment with 10% (v/v) fetal calf serum, and luciferase and β-galactosidase activities were measured in cell lysates at 48 hours post-transfection. The data are presented as the ratio of luciferase activity (light units) to β-galactosidase activity (OD units) measured in the cell extracts (mean±SEM (n=3)), and are normalized to the luciferase activity detected in the absence of JBD (FIGS. 4A and 4B) or ATF2 (FIG. 4C).

[2] = biological target: T1, JNK2 (Homo sapiens, UniProt P45984); test: Co-immunoprecipitation of JIP-1 with JNK2; type: binding; details: protein immunoblot
T1 construct: expressed in transfected cells

[3] = test system: ERK2; test: Immune complex protein kinase assay: ERK, substrate MBP; type: biochemical, Chinese hamster; details: in vitro, 3 μg myelin basic protein
Description: To test whether JIP-1 competes with Jun and ATF2 for interaction with JNK, the effect of JIP-1 on transcription factor-mediated phosphorylation of exogenous substrates was analyzed using an in vitro protein kinase assay. In these experiments, Chinese hamster ovary (CHO) cells were serum-starved for one hour. In some experiments, the cells were treated with 10 ng/ml mouse interleukin 1 or 100 nM phorbol myristic acetate. JNK, p38, and ERK protein kinase activity was measured in an immune complex kinase assay using 3 μg of the substrates GST-Jun, GST-ATF2, and myelin basic protein (MBP), respectively. Protein kinase assays were performed using 40 μl 20 mM Hepes (pH 7.4), 20 mM MgCl2, 20 mM β-glycerophosphate, 2 mM dithiothreitol, 0.1 mM sodium orthovanadate, 50 μM [γ-^32P]ATP (10 Ci/mmol). After incubation for 30 minutes at 30° C., phosphorylation of substrates was analyzed by polyacrylamide gel electrophoresis and autoradiography.

[4] = biological target: T2, JNK1 (Homo sapiens, UniProt P45983); test: GST-fusion pull-down from cell lysates, Flag immunoblot: JNK1; type: binding; details: GST pull-down, Flag immunoblot
T2 construct: expressed in transfected cells
Description: To test whether JIP-1 binding to JNK is also isoform-dependent, a binding assay was utilized. Cell lysates (1 ml in TLB) containing JNK1, JNK2, or p38 MAP kinase, each tagged with the Flag epitope, were incubated with 5 μg GST-fusion proteins pre-bound to 10 μl glutathione-Sepharose. The GST fusion proteins used contain residues 127-202 (SEQ ID NO:15), 203-281 (SEQ ID NO:16), 164-240 (SEQ ID NO:17), or 127-281 (SEQ ID NO:4) of JIP-1. The GST-ATF2 fusion protein contains residues 1-109 of ATF2, and the GST-Jun fusion protein contains residues 1-79 of c-Jun. After incubation for one hour at 4° C. and three washes with TLB, bound proteins were detected by protein immunoblot analysis with the M2 monoclonal antibody, which is specific for the Flag epitope. Dérijard, et al., supra; Sluss et al., supra; Gupta et al., supra. […] This finding is consistent with the results of previous studies. In contrast, when GST-JIP-1 fusion proteins containing residues 127-202 or 127-281 of JIP-1 were tested in the assay, these proteins bound both JNK1 and JNK2.
The GST-JIP-1 fusion proteins containing various portions of the JIP-1 gene were used to define regions of JIP-1 that are required for JNK interaction. A GST-JIP-1 fusion protein containing residues 127-281 of JIP-1 bound both JNK1 and JNK2.
To more precisely define the JIP-1 sequence required for JNK binding activity, additional […] fusion proteins were constructed. These fusion proteins contained residues 135-202 (SEQ ID NO:18), 144-202 (SEQ ID NO:19), 154-202 (SEQ ID NO:20), 164-202 (SEQ ID NO:21), 127-143 (SEQ ID NO:22), 127-153 (SEQ ID NO:23), or 127-163 (SEQ ID NO:24) of JIP-1. Proteins containing residues 127-202, 135-202, 144-202, […], and 127-163 all bound both JNK1 and JNK2. Thus, JIP-1 residues 144-163 are important for the interaction of JIP-1 with JNK.

[5] = test system: Elk-1 transcriptional activity; test: GAL4 luciferase reporter assay in CHO cells: GAL4-Elk-1; type: cell-based, Chinese hamster; details: FIG. 4B
Description: as §1, §2

[6] = biological target: ERK2 (Homo sapiens, UniProt P28482); test: Co-immunoprecipitation of JIP-1 with ERK2 (specificity control); type: binding; details: control experiment
[7] = test system: ATF2 transcriptional activity; test: GAL4 luciferase reporter assay in CHO cells: GAL4-ATF2; type: cell-based, Chinese hamster
Description: In these experiments, CHO cells were cotransfected with constructs encoding the transcription factors and JIP-1 using previously described methods. Dérijard et al., supra; Sluss et al., supra; Gupta et al., supra. A luciferase reporter plasmid was used to monitor the expression of the transcription factors. Transfection efficiency was determined using a β-galactosidase expression vector. Constructs used in these experiments included GAL4 fusions with the c-myc, Sp1 and VP16 activation domains (described in Whitmarsh et al., Science, 269:403 (1995); Davis, Science, 269:403 (1995); Gille et al., Curr. Biol., 5:1191 (1995)). Other constructs used were GAL4-c-Jun, in which GAL4 is fused to c-Jun; GAL4-c-Jun (S63A/S73A), in which GAL4 is fused to a mutant c-Jun in which the serines at positions 63 and 73 have been changed to alanines; GAL4-ATF2, in which GAL4 is fused to wild type ATF2 (ATF2(Thr-69, 71)); GAL4-ATF2 (T69A/T71A) (ATF2(Ala-69/71)), in which GAL4 has been fused to a mutant ATF2 in which the […] at positions 69 and 71 have been changed to alanines; GAL4-Elk-1, in which GAL4 has been fused to Elk-1; and GAL4-Elk-1 (S383A), in which GAL4 has been fused to a mutant Elk-1 in which the serine at position 383 has been changed to an alanine. Gupta et al., EMBO J, 15:2760-2770 (1996); Raingeaud et al., Mol. Cell. Biol., 16:1247-1255 (1996); Whitmarsh et al. Science, 269:403-407 (1995).
Insertional overlapping PCR, described in detail in Ho, supra, was used to construct expression vectors for the JNK binding domain (JBD; amino acid residues 127-281) of JIP-1 and for a mutant JIP-1 lacking the SH3 (amino acid residues 491-540) domain.
as §2

[8] = biological target: T3, p38 MAP kinase (Homo sapiens, UniProt Q16539); test: Immunofluorescence: subcellular distribution of p38 MAP kinase on JIP-1 expression; type: cell-based
T3 construct: expressed in transfected cells
T3 sequence (Q16539 whole entry): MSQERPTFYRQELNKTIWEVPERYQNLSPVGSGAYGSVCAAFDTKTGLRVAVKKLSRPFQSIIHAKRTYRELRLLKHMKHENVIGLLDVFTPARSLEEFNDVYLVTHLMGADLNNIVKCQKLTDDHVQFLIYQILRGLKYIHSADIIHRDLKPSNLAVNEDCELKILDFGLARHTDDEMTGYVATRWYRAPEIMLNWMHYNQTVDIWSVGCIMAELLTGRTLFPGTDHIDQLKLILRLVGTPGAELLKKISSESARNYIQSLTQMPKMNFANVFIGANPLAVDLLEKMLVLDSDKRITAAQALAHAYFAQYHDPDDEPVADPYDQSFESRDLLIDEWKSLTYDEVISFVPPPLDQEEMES

Chain of ERK2 (Homo sapiens, UniProt P28482) (P28482 whole entry, species assumed, the tested form may be a part): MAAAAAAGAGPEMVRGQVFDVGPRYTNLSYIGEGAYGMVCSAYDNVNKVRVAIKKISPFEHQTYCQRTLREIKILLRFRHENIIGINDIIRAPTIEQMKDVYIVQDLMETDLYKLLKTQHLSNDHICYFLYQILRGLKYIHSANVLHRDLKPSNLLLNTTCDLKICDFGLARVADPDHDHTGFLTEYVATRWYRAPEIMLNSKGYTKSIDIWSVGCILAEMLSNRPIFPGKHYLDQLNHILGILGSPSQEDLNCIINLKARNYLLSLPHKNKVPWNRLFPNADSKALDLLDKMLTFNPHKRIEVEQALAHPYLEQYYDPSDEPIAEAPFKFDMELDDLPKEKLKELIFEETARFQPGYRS
T2 sequence (P45983 1-384 isoform P45983-2): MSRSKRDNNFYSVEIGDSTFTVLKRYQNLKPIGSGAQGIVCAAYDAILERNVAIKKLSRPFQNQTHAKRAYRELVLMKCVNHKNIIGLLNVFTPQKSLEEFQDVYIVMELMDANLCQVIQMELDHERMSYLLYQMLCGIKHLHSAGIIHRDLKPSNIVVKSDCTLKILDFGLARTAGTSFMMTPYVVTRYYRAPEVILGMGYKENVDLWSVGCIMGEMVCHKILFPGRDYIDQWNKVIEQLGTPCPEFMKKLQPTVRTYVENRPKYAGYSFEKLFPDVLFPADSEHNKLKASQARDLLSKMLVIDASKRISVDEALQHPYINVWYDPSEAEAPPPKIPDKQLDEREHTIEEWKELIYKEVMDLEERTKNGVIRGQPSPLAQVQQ

B1: JIP-1: 660 amino acid murine cytoplasmic protein that specifically binds JNK (protein)
chain: MAERESGLGGGAASPPAASPFLGLHIASPPNFRLTHDISLEEFEDEDLSEITDECGISLQCKDTLSLRPPRAGLLSAGSSGSAGSRLQAEMLQMDLIDAAGDTPGAEDDEEEEDDELAAQRPGVGPPKAESNQDPAPRSQGQGPGTGSGDTYRPKRPTTLNLFPQVPRSQDTLNNNSLGKKHSWQDRVSRSSSPLKTGEQTPPHEHICLSDELPPQGSPVPTQDRGTSTDSPCRRSAATQMAPPSGPPATAPGGRGHSHRDRIHYQADVRLEATEEIYLTPVQRPPDPAEPTSTFMPPTESRMSVSSDPDPAAYSVTAGRPHPSISEEDEGFDCLSSPERAEPPGGGWRGSLGEPPPPPRASLSSDTSALSYDSVKYTLVVDEHAQLELVSLRPCFGDYSDESDSATVYDNCASASSPYESAIGEEYEEAPQPRPPTCLSEDSTPDEPDVHFSKKFLNVFMSGRSRSSSAESFGLFSCVINGEEHEQTHRAIFRFVPRHEDELELEVDDPLLVELQAEDYWYEAYNMRTGARGVFPAYYAIEVTKEPEHMAALAKNSCVLEISVRGVKIGVKADDALEAKGNKCSHFFQLKNISFCGYHPKNNKYFGFITKHPADHRFACHVFVSEDSTKALAESVGRAFQQFYKQFVEYTCPTEDIYLE
- basal transcriptional activity of c-Jun mutated at JNK phosphorylation sites ([1]; GAL4-c-Jun (S63A/S73A)): not markedly inhibited
- c-Jun transcriptional activity ([1]; wild type GAL4-c-Jun, CHO cells): Significant inhibition
- co-immunoprecipitation of JIP-1 with JNK2 [2]: observed
- phosphorylation of substrate by ERK2 [3]: no significant change
- binding of JNK compared with binding of JNK to ATF2 or c-Jun [4]: significantly greater
- basal transcriptional activity of Elk-1 mutated at JNK phosphorylation sites ([5]; GAL4-Elk-1 (S383A)): not markedly inhibited
- Elk-1 transcriptional activity ([5]; wild type GAL4-Elk-1, CHO cells): partial inhibition
- co-immunoprecipitation of JIP-1 with ERK2 [6]: did not co-immunoprecipitate
- basal transcriptional activity of ATF2 mutated at JNK phosphorylation sites ([7]; GAL4-ATF2 (T69A/T71A), FIG. 4B): not markedly inhibited
- JNK-regulated gene expression ([7]; GAL4-ATF2 reporter, CHO cells, FIG. 4C): inhibition
- ATF2 transcriptional activity ([7]; wild type GAL4-ATF2, CHO cells, FIG. 4B): Significant inhibition
- subcellular distribution of p38 MAP kinase [8]: no significant effect
